The subject of series [1] is ERK. The series is described as follows: ERK activation in HSCs (Western blot). Type of series: cell-based, human. To be noted: stimulation with IL-11. The procedure:
Western blots were carried out on total protein extracts from HSCs and liver tissues. Both cells and frozen tissues were homogenized in radioimmunoprecipitation assay (RIPA) buffer containing protease and phosphatase inhibitors (Thermo Scientifics), followed by centrifugation to clear the lysate. Protein concentrations were determined by Bradford assay (Bio-Rad). Equal amount of protein lysates were separated by SDS-PAGE, transferred to PVDF membrane, and subjected to immunoblot analysis for the indicated primary antibodies. Proteins were visualized using the ECL detection system (Pierce) with the appropriate secondary antibodies.
In general terms: Immunoblotting shows a protein as a band on a membrane.

The subject of series [2] is HSCs. The series is described as follows: Matrigel invasion assay of HSCs. To be noted: 48 h. Type of series: cell-based, human. On the procedure:
The invasive behavior of human HSCs was assayed using 24-well Boyden chamber invasion assays (Cell Biolabs Inc.). Equal numbers of HSCs in serum-free HSC media were seeded in triplicates onto the ECM-coated matrigel and were allowed to invade towards HSC media containing 0.2% FBS. After 48 h of incubation with stimuli, media was aspirated and non-invasive cells were removed using cotton swabs. The cells that invaded towards the bottom chamber were stained with cell staining solution (Cell Biolabs Inc.) and invasive cells from 5 non-overlapping fields/membrane were imaged and counted under 40× magnification. For antibody inhibition experiments, HSCs were pretreated with X203, X209, or IgG control antibodies for 15 m prior to addition of stimuli.

For series [3], the system named is HSCs. Nature of the series: HSC-to-myofibroblast transformation (ACTA2/Collagen I, Operetta). Type of series: cell-based, human. To be noted: IL-11 5 ng/ml, 24 h. On the procedure:
Cells (atrial fibroblasts, HSCs and hepatocytes) were grown and maintained at 37° C. and 5% CO2. The growth medium was renewed every 2-3 days and cells were passaged at 80-90% confluence using standard trypsinization techniques. All the experiments were carried out at low cell passage (P1-P2). Cells were serum-starved for 16 h prior to stimulations. Stimulated cells were compared to unstimulated cells that have been grown for the same duration under the same conditions (serum-free media), but without the stimuli.
HSCs (5300, ScienCell) were cultured in stellate cells complete media (5301, ScienCell) on poly-L-lysine-coated plates (2 μg/cm2, 0403, ScienCell).
The Operetta assay was performed mostly as described previously 11 with minor modifications described here: HSCs or hepatocytes were seeded in 96-well black CellCarrier plates (PerkinElmer) at a density of 5×10^3 cells per well. Following experimental conditions, cells were fixed in 4% paraformaldehyde (PFA, 28908, Thermo Fisher), permeabilized with 0.1% Triton X-100 (Sigma) and non-specific sites were blocked with 0.5% BSA and 0.1% Tween-20 in PBS. Cells were incubated overnight (4° C.) with primary antibodies (1:500), followed by incubation with the appropriate AlexaFluor 488 secondary antibodies (1:1000). Rhodamine Phalloidin staining (1:1000, R415, Thermo Fisher) was performed by overnight incubation (4° C.). […]

Series [4] has as its target IL-11Rα. The following applies: IL-11Rα alone, low affinity; cited from earlier work.
Series [5] deals with HSCs. Nature of the series: CCL2 secretion by HSCs (ELISA). To be noted: IL-11 5 ng/ml. Type of series: cell-based, human. On the procedure:
FIG. 31A to 31H. Neutralizing anti-IL-11 and anti-IL11 RA antibodies protect HFMCD-fed mice from hepatic fibrosis and inflammation. (A) CCL2 in the supernatants of HSCs (n=4/group) without stimulus (−), with IL-11, or with TGFβ1 in the presence of IgG, X203, or X209 by ELISA; IL-11 (5 ng m1^−1), TGFβ1 (5 ng m1^−1), IgG, X203, and X209 (2 μg m1^−1). (B) Representative gross liver images, (C) Western blots of hepatic ERK activation status, (D) representative (scale bars, 100 μm) and (E) quantification of Masson's Trichrome stained images of livers after 5 weeks of early X203 and X209 treatments. (F) Liver hydroxyproline content (the values of NC and HFMCD 1 week diets are the same as those used in FIG. 25C, the values of IgG 3 and 6 weeks are the same as those used in FIG. 22F, n≥5/group), (G) relative RNA expression levels of fibrosis markers in the livers after 5 weeks treatment of X203 and X209 by qPCR, which confirms data from RNA-seq (the values of NC 6 week for Col1a1, Col1a2, Col3a1, and Acta2 are the same as those shown in FIG. 28D, n≥5/group), and (H) serum ALT levels (the values of NC and HFMCD 1 week are the same as those used in FIG. 25D, the values of IgG 3 and 6 weeks (2 weeks and 5 weeks treatment, respectively) are the same as those used in FIG. 22G, n≥5/group). […]

The subject of series [6] is PSCs. The series is described as follows: Pancreatic stellate cell (PSC) activation in vitro. The format is cell-based. The following applies: treatment with IL-11, 24 hours. The procedure: FIGS. 48A and 48B. Box plots and images showing activation of pancreatic stellate cells (PSCs) to a αSMA-positive, collagen-expressing fibrogenic phenotype. (A) Quantification of high-content imaging assays for the percentage of ACTA2-positive cells and collagen I intensity/area following in vitro stimulation of PSCs for 24 hours with the indicated factors, in the presence or absence of neutralising anti-IL-11 RA antibody or IgG isotype control antibody. (B) Representative images for high-content imaging analysis of collagen I intensity/area following in vitro stimulation of PSCs for 24 hours with the indicated factors, in the presence of neutralising anti-IL-11 RA antibody or IgG isotype control antibody.

Series [7] deals with primary human hepatocytes. Nature of the series: Stimulation of primary human hepatocytes with IL11, hyperIL11, hyperIL6. The format is cell-based. The procedure: Human hepatocytes (5200, ScienCell) were grown and maintained in hepatocyte media (5201, ScienCell) supplemented with 2% fetal bovine serum (FBS) and 1% Penicillin-streptomycin.
Primary human hepatocytes (5200, ScienCell) were maintained in hepatocyte medium ([…], ScienCell) supplemented with 2% fetal bovine serum, 1% Penicillin-streptomycin at 37° C. and 5% CO2. Hepatocytes (P2-P3) were serum-starved overnight unless otherwise specified in the methods prior to 24 hours stimulation with different doses of various recombinant proteins as described.
For surface IL11RA, IL6R, and gp130 analysis, primary human hepatocytes and THP-1 cells were stained with IL11RA, IL6R, or gp130 antibody and the corresponding Alexa Fluor 488 secondary antibody. Cell death analysis was performed by staining primary human hepatocytes with Dead Cell Apoptosis Kit with Annexin V FITC and PI (V13242, Thermo Fisher). PI+ve cells were then quantified with the flow cytometer (Fortessa, BD Biosciences) and analyzed with FlowJo version X software (TreeStar).
Alanine Aminotransferase (ALT) activity in the cell culture supernatant and mouse serum was measured using ALT Activity Assay Kit (ab105134, Abcam). Liver Glutathione (GSH) levels were measured using Glutathione Colorimetric Detection Kit (EIAGSHC, Thermo Fisher). Total hydroxyproline content in mouse livers was measured using Quickzyme Total Collagen assay kit (QZBtotco15, Quickzyme Biosciences). The levels of serum and liver triglycerides were measured using Triglyceride Assay Kit (ab65336, Abcam). Mouse serum levels of Aspartate Aminotransferase (AST) and cholesterol were measured using AST Assay Kit (ab105135, Abcam) and Cholesterol Assay Kit (ab65390; Abcam), respectively. All colorimetric assays were performed according to the manufacturer's protocol.
Western blots were carried out on total protein extracts from hepatocytes and liver tissues. Hepatocyte and liver tissue lysates were homogenized in RIPA Lysis and Extraction Buffer (89901, Thermo Scientific) containing protease and phosphatase inhibitors (Roche). Protein lysates were separated by SDS-PAGE and transferred to PVDF membranes. Protein bands were visualized using the ECL detection system (Pierce) with the appropriate secondary antibodies: anti-rabbit HRP or anti-mouse HRP.

What is called Kd is the concentration at which binding is half-saturated.

B1: IL-11: Interleukin 11; recombinant human IL11 (UniProtKB:P20809) used to stimulate cells (protein, listed as Homo sapiens)
chain: MNCVCRLVLVVLSLWPDTAVAPGPPPGPPRVSPDPRAELDSTVLLTRSLLADTRQLAAQLRDKFPADGDHNLDSLPTLAMSAGALGALQLPGVLTRLRADLLSYLRHVQWLRRAGGSSLKTLEPELGTLQARLDRLLRRLQLLMSRLALPQPPPDPPAPPLAPPSSAWGGIRAAHAILGGLHLTLDWAVRGLLLLKTRL
modifications: IL-11 (UniProt P20809)
notes: Interleukin 11; recombinant human IL11 (UniProtKB:P20809) used to stimulate cells
In the case of B1, the “ERK activation in HSCs” value in series [1] is recorded as “directly activates ERK”. Also, the “matrix invasion by HSCs” value in series [2] is “promoted dose-dependent matrix invasion”. In series [3], the “activation of HSCs into ACTA2+ve myofibroblasts” value is “activated HSCs to a similar extent as TGFβ1 or PDGF”. Further, in series [4], the Kd is about 10 nM. In addition, in series [5], the “HSC production of CCL2” value is “stimulated HSC production of CCL2”. Also, the PSC activation entry in series [6] was “triggered”. Besides, the hepatocyte cell death result in series [7] (IL11 0.625 ng/ml to 20 ng/ml) is listed as “caused hepatocyte cell death”. Also, in series [7] (IL-11, dose range), the “expression of stress fibres in hepatocytes” value is “progressive increase in expression of stress fibres”. The “release of ALT from hepatocytes” value in series [7] (physiological levels of IL-11) was “dose-dependent release of ALT”.

These data come from US11813311B2, “Treatment and prevention of metabolic diseases” (Singapore Health Services PTE LTD., priority 2019, dated 2023).
